This is an account of results in the supplement of paper PMC10567573.

± gives the standard deviation.

A short description of this data set: protein stability index of a GFP-peptide fusion (GPS, HEK-293T) (PSI 1-6); higher = more stable.
Where [1] appears, read: treatment: DMSO, c terminus: a fixed tail appended.
The mark [2] stands for this setting: treatment: MLN4924 1 uM, 8 h, c terminus: a fixed tail appended.
The mark [3] stands for this setting: treatment: DMSO, c terminus: native.
The mark [4] stands for this setting: treatment: MLN4924 1 uM, 8 h, c terminus: native.
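Also: 24-mer peptide tiles fused after GFP, lentivirally expressed, FACS-sorted into six equal bins by GFP/DsRed ratio, decoded by Illumina sequencing, PSI is the read-weighted mean bin number.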

As to ELEEDDGHGAEQAAAFPTEDSRTS [EHMT1], the protein stability index under setting [1] worked out at 5.65 ± 0.17 and the protein stability index under setting [2] is 5.7 ± 0.088.

For the sequence ELFEDIVAREYYSEADASHCIQQI [CAMK2B], the protein stability index worked out at 2.8 ± 0.34 under setting [1] and 3.03 ± 0.25 under setting [2].

ELGSPLRRSISSSRSENVLSRLSL [PSD2]: the protein stability index was 3.07 ± 0.42 under setting [1] and 3.2 ± 0.13 under setting [2].

ELMAELEELEQEELNKKMTNIRLP [CHMP4C] gave a protein stability index under setting [1] of 3.55 ± 0.3 and a protein stability index under setting [2] of 3.65 ± 0.22.

ELRRRRYEYDHWDAAIHGFRETEK [ALKBH7] showed a protein stability index under setting [1] of 3.5 ± 0.39 and a protein stability index under setting [2] of 3.56 ± 0.44.

Consider ELRVLADTYDSVYLHPNSYSCACL [HDAC6], for which the protein stability index is, setting by setting: under setting [1], 2.03 ± 0.12; under setting [2], 2.04 ± 0.4.

Turning to ENSVEFEACLVAQCDALIDALNRR [TRIM9], the protein stability index is, setting by setting: under setting [1], 2.88 ± 0.24; under setting [2], 3.11 ± 0.37.

Regarding ENYNNLANAVISVSGINHDVTSGD [CPN1], the protein stability index is, setting by setting: under setting [1], 4.28 ± 0.2; under setting [2], 4.4 ± 0.14.

For the sequence EPELSPAYLISEAMRRSRMSLYC [GFOD1], the protein stability index worked out at 2.3 ± 0.81 under setting [3] and 2.27 ± 0.3 under setting [4].

With EPFGKERDAAIKKLATEAGVEVIV [CRY1], the protein stability index turned out to be 3.59 ± 0.22 under setting [1] and 3.48 ± 0.28 under setting [2].

With EPFVLPASSVESTLPVLEASSWKK [FBXO34], the protein stability index came out at 4.57 ± 0.22 under setting [1] and 4.87 ± 0.2 under setting [2].

As for EPGKQERDVYLPAGKWRSYKGELF [MYORG], the protein stability index by setting is: under setting [1], 3.17 ± 0.087; under setting [2], 3.2 ± 0.21.

For the sequence EPKNYGSYSTQASAAAATAELLKK [SCAMP3], the protein stability index under setting [1] is 4.84 ± 0.18 and the protein stability index under setting [2] came to 4.83 ± 0.16.

Take EPLEPEVKYVGNMHGNEALGRELM [CPN1]: the protein stability index was determined as 4.63 ± 0.088 under setting [1] and 4.82 ± 0.18 under setting [2].

Regarding EPNTLRAPRVRTAFTMEQVRTLEG [VENTX], the protein stability index by setting is: under setting [1], 3.98 ± 0.39; under setting [2], 3.85 ± 0.21.

In the case of EPPPALPPAADAPVTQIGFEAPPL [TRIM55], the protein stability index runs as follows: under setting [1], 5.24 ± 0.22; under setting [2], 5.39 ± 0.11.

Take EPPPEVWQVLKTHPGDPRFQCSLW [POLD4]: the protein stability index is, setting by setting: under setting [1], 2.45 ± 0.42; under setting [2], 2.55 ± 0.31.

For EQCVSFNSHVYNGRTHQWKPLYPD [ADAMTSL2], the protein stability index was 3.26 ± 0.25 under setting [1] and 3.08 ± 0.19 under setting [2].

As for EQDAACGFCFFNSVAVAARHAQTI [HDAC6], the protein stability index reads like this: under setting [1], 1.99 ± 0.83; under setting [2], 1.95 ± 0.21.

For the sequence EQELLRRQQRLNQLEKPPEKEEDH [FAM107A], the protein stability index is 5.62 ± 0.16 under setting [1] and 5.54 ± 0.12 under setting [2].

As for EQEPIGTDLDAVRTPEPLEEFPKR [MYBL2], the protein stability index was 5.57 ± 0.2 under setting [1] and 5.18 ± 0.46 under setting [2].

On to EQLERINDALSCEYECRRRMLMKR [FAM98B], for which the protein stability index runs as follows: under setting [1], 3.09 ± 0.37; under setting [2], 3.14 ± 0.33.

Consider EQPVPPTPATPEDPAPLWGPPPAQ [EMID1], for which the protein stability index came out at 4.92 ± 0.38 under setting [1] and 5.32 ± 0.22 under setting [2].

As for EQYDLATKRVRQLLDLDPEVECLK [GOLPH3], the protein stability index is, setting by setting: under setting [1], 3.96 ± 0.28; under setting [2], 3.97 ± 0.43.

Consider ERCFRGSSYPVCVSKVVKGGSSGK [OAS1], for which the protein stability index was 3.84 ± 0.13 under setting [1] and 4.07 ± 0.12 under setting [2].

On to ERHLVEIKQKLGMNLMNELKQNFS [TPD52L1], for which the protein stability index runs as follows: under setting [1], 3.04 ± 0.2; under setting [2], 2.71 ± 0.41.

As to ERLDELQDKSESLSDNATAFSNRS [VAMP4], the protein stability index is, setting by setting: under setting [1], 5.44 ± 0.24; under setting [2], 5.34 ± 0.088.

With ERNNIAVRKSRDKAKRRNQEMQQK [CEBPD], the protein stability index under setting [1] worked out at 3.79 ± 0.9 and the protein stability index under setting [2] is 3.31 ± 0.37.

As for ERRPVAQSTDGARGKRGYSRGLHA [SPSB2], the protein stability index by setting is: under setting [1], 4.52 ± 0.11; under setting [2], 4.58 ± 0.13.

In the case of ERTKSRLVNTSENLSKSRKILRSM [VTI1B], the protein stability index came to 3.79 ± 0.21 under setting [1] and 3.87 ± 0.19 under setting [2].

In turn, ESEVYSWGKGARGRLGRRDEDAGL [NEK8] returned a protein stability index under setting [1] of 4.67 ± 0.19 and a protein stability index under setting [2] of 4.66 ± 0.37.

Take ESGVDVNSQNEVNGWTCLHWACKR [ANKRD40]: the protein stability index under setting [1] amounted to 3.06 ± 0.22 and the protein stability index under setting [2] is 3.31 ± 0.46.

As to ESPFSRKLDLWSFLDIPRSRLVKY [NET1], the protein stability index reads like this: under setting [1], 2.06 ± 0.14; under setting [2], 2.15 ± 0.21.

Take ESRMRIESLSSQLSNLQKESRACL [LMNB1]: the protein stability index reads like this: under setting [1], 3.63 ± 0.34; under setting [2], 3.94 ± 0.12.

In the case of ESSILGTDIDLQTIDNDIVSMEIF [M1AP], the protein stability index reads like this: under setting [1], 3.86 ± 0.34; under setting [2], 3.74 ± 0.35.

Sequence ETLEGREKAFIAHFQDNLHSVNRD [MED27] displayed a protein stability index under setting [1] of 4.32 ± 0.22 and a protein stability index under setting [2] of 4.26 ± 0.2.

ETVPWFPKKISDLDHCANRVLMYG [TPH1] yielded a protein stability index under setting [1] of 2.38 ± 0.24 and a protein stability index under setting [2] of 2.46 ± 0.26.

In the case of EVHSLTLSPPEQAAQPMQPLPESL [PLAGL1], the protein stability index is, setting by setting: under setting [1], 4.92 ± 0.26; under setting [2], 5.02 ± 0.088.

For the sequence EVLAQPQGALAPPNCESDSKTGV [DNAAF3], the protein stability index reads like this: under setting [3], 5.34 ± 0.27; under setting [4], 5.3 ± 0.39.

On to EVLENVFRVNCYPGIDIREDLAQK [HESX1], for which the protein stability index amounted to 2.46 ± 0.31 under setting [1] and 2.35 ± 0.66 under setting [2].

On to EWARALETRDWGGAQFEGEKGRAL [ZSWIM9], for which the protein stability index by setting is: under setting [1], 3.88 ± 0.3; under setting [2], 3.9 ± 0.31.

Regarding FANEEEAKKFRKAVTDLLGRRQRK [WASL], the protein stability index is 3.15 ± 0.24 under setting [1] and 3.52 ± 0.27 under setting [2].

For the sequence FDVETRHVFIGDHSGQVTILKLEQ [WDFY2], the protein stability index is, setting by setting: under setting [1], 2.2 ± 0.44; under setting [2], 2.43 ± 0.33.

With FEKLLQLTSQNIEIKLVSDVTADS [PLD5], the protein stability index under setting [1] was found to be 2.69 ± 0.59 and the protein stability index under setting [2] is 2.72 ± 0.37.

Consider FGFFFGRTPLIKLSPKKTWEGFIG [CDS1], for which the protein stability index amounted to 2.47 ± 0.48 under setting [1] and 2.18 ± 0.57 under setting [2].

For FGIEIEVTDINDNAPKFQAENLDV [PCDHGA10], the protein stability index is 3.5 ± 0.56 under setting [1] and 3.98 ± 0.38 under setting [2].

As to FGVTYLEDYSAEYIIQQGGWGTVF [BCL2L13], the protein stability index is 2.48 ± 0.38 under setting [1] and 2.33 ± 0.26 under setting [2].

As to FHCIETLVTTGANVNETDDWGRTA [ANKRD44], the protein stability index turned out to be 2.62 ± 0.32 under setting [1] and 3.15 ± 0.36 under setting [2].

Take FHLSLFQGWMNLLNMAKKSVDIVS [PLD5]: the protein stability index stood at 2.99 ± 1.5 under setting [1] and 1.73 ± 0.94 under setting [2].

As for FICKECGKAYGWCSELIRHRRVHA [ZNF232], the protein stability index reads like this: under setting [1], 3.38 ± 0.3; under setting [2], 3.73 ± 0.33.

As for FISQVTVLKYFSHYMEENLMDGGD [PLK2], the protein stability index came to 2.46 ± 0.69 under setting [1] and 2.3 ± 0.49 under setting [2].

Turning to FIVGMVGNATLLRIIYQNKCMRNG [EDNRA], the protein stability index reads like this: under setting [1], 2.98 ± 0.15; under setting [2], 2.51 ± 0.68.

In the case of FKPKNEEPYGHLNPKWTKWLQKLC [PI4K2A], the protein stability index worked out at 2.88 ± 0.58 under setting [1] and 2.79 ± 0.54 under setting [2].

Take FLCLQYRLRGKLRAEIENLHRTFD [MOG]: the protein stability index under setting [1] was 2.41 ± 0.57 and the protein stability index under setting [2] came to 2.18 ± 0.39.

FLGETKQETLTNISAVNYDFDEEY [DAPK3] had a protein stability index under setting [1] of 4.77 ± 0.35 and a protein stability index under setting [2] of 4.84 ± 0.24.

For FLGGVVRMTISLTVILIESTNEIT [CLCN6], the protein stability index runs as follows: under setting [1], 3.41 ± 0.43; under setting [2], 3.42 ± 0.19.

As for FMHENLYFTNRKVNSVCWASLNHL [DCAF4], the protein stability index by setting is: under setting [1], 2.69 ± 0.48; under setting [2], 2.46 ± 0.53.

On to FMQTGYNKLCDWWSLGVIMYEMLI [STK38L], for which the protein stability index worked out at 2.77 ± 0.82 under setting [1] and 2.47 ± 0.64 under setting [2].

Take FPLKPMVHRKSCSTGEAGTDGDHN [ZC2HC1C]: the protein stability index runs as follows: under setting [1], 4.53 ± 0.18; under setting [2], 4.38 ± 0.27.

On to FPNWAMALLITLIVVATLPIPVVF [SLC6A17], for which the protein stability index amounted to 3.43 ± 0.88 under setting [1] and 3.04 ± 0.33 under setting [2].

For FQEYDTDCEVFRQRFRQFQYREAA [ZNF449], the protein stability index came to 2.77 ± 0.27 under setting [1] and 3.18 ± 0.23 under setting [2].

On to FQKSHNSLQRWEHLKKVASRYQNN [PRIM1], for which the protein stability index reads like this: under setting [1], 2.46 ± 0.42; under setting [2], 2.9 ± 0.13.

On to FSGHFLCTSSWDKNLKIWNVHTGE [WDR88], for which the protein stability index stood at 2.71 ± 0.71 under setting [1] and 2.55 ± 0.15 under setting [2].

Consider FSNTSELAKDFIRRLLVKDPKRRM [DAPK3], for which the protein stability index is, setting by setting: under setting [1], 2.36 ± 0.19; under setting [2], 2.16 ± 0.44.

Regarding FVLYFLLACWTYGISVPSGLFVPS [CLCN6], the protein stability index runs as follows: under setting [1], 3.49 ± 0.56; under setting [2], 3.09 ± 0.14.

For FVNDLTVTQDGRKIYFTDSSSKWQ [APMAP], the protein stability index runs as follows: under setting [1], 2.8 ± 0.46; under setting [2], 2.92 ± 0.24.

The sequence FYLVYFKIQASGETPNSLNTTVIP [LYSMD4] came in with a protein stability index under setting [1] of 2.9 ± 0.04.

In the case of GAAVGTGSSYPTTTISYLPHAPPF [JUNB], the protein stability index is, setting by setting: under setting [1], 3.1 ± 0.29; under setting [2], 3.35 ± 0.36.

As to GAEDGDRAILYPCHGMSSQLVRYS [GALNT9], the protein stability index came out at 3.09 ± 0.17 under setting [1] and 3.16 ± 0.29 under setting [2].

GAHFPQVPGGAVRVAAAAGSGPSP [PI4K2A] returned a protein stability index under setting [1] of 4.53 ± 0.14 and a protein stability index under setting [2] of 4.48 ± 0.088.

Consider GAYQPTVVSSEGRQSRRQSVSRFF [FBF1], for which the protein stability index worked out at 4.01 ± 0.37 under setting [1] and 4.1 ± 0.32 under setting [2].

In the case of GCRTTHSNQEVLQSCLLVIFATKP [PYCR3], the protein stability index under setting [1] was 2.64 ± 0.68 and the protein stability index under setting [2] turned out to be 2.65 ± 0.91.
